To fix the notation:
B1: MLF2 (protein, UniProt Q15773 1-248, looked up)
Myeloid leukemia factor 2: MFRFMRDVEPEDPMFLMDPFAIHRQHMSRMLSGGFGYSPFLSITDGNMPGTRPASRRMQQAGAVSPFGMLGMSGGFMDMFGMMNDMIGNMEHMTAGGNCQTFSSSTVISYSNTGDGAPKVYQETSEMRSAPGGIRETRRTVRDSDSGLEQMSIGHHIRDRAHILQRSRNHRTGDQEERQDYINLDESEAAAFDDEWRRETSRFRQQRPLEFRRLESSGAGGRRAEGPPRLAIQGPEDSPSRQSRRYDW
B2: O60613 (protein, UniProt O60613 1-165, looked up)
chain: MVAMAAGPSGCLVPAFGLRLLLATVLQAVSAFGAEFSSEACRELGFSSNLLCSSCDLLGQFNLLQLDPDCRGCCQEEAQFETKKLYAGAILEVCGUKLGRFPQVQAFVRSDKPKLFRGLQIKYVRGSDPVLKLLDDNGNIAEELSILKWNTDSVEEFLSEKLERI
modifications: full-length
B3: ASCC2 (protein, UniProt Q9H1I8 1-757, looked up)
Activating signal …: MPALPLDQLQITHKDPKTGKLRTSPALHPEQKADRYFVLYKPPPKDNIPALVEEYLERATFVANDLDWLLALPHDKFWCQVIFDETLQKCLDSYLRYVPRKFDEGVASAPEVVDMQKRLHRSVFLTFLRMSTHKESKDHFISPSAFGEILYNNFLFDIPKILDLCVLFGKGNSPLLQKMIGNIFTQQPSYYSDLDETLPTILQVFSNILQHCGLQGDGANTTPQKLEERGRLTPSDMPLLELKDIVLYLCDTCTTLWAFLDIFPLACQTFQKHDFCYRLASFYEAAIPEMESAIKKRRLEDSKLLGDLWQRLSHSRKKLMEIFHIILNQICLLPILESSCDNIQGFIEEFLQIFSSLLQEKRFLRDYDALFPVAEDISLLQQASSVLDETRTAYILQAVESAWEGVDRRKATDAKDPSVIEEPNGEPNGVTVTAEAVSQASSHPENSEEEECMGAAAAVGPAMCGVELDSLISQVKDLLPDLGEGFILACLEYYHYDPEQVINNILEERLAPTLSQLDRNLDREMKPDPTPLLTSRHNVFQNDEFDVFSRDSVDLSRVHKGKSTRKEENTRSLLNDKRAVAAQRQRYEQYSVVVEEVPLQPGESLPYHSVYYEDEYDDTYDGNQVGANDADSDDELISRRPFTIPQVLRTKVPREGQEEDDDDEEDDADEEAPKPDHFVQDPAVLREKAEARRMAFLAKKGYRHDSSTAVAGSPRGHGQSRETTQERRKKEANKATRANHNRRTMADRKRSKGMIPS

The subject of the first test is Hsp90 complexes in Mia-PaCa-2 cell extract. The experiment in a line: Nano-LC-MS/MS of PU-beads pull-downs. The following applies: protein identified in PU-beads pull-down of Mia-PaCa-2 cell extract; QSTAR-Elite QTof MS. In kind it is binding, human. The essentials: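 Lysates pre-cleared overnight at 4 °C with control beads underwent PU-bead pull-down; bound proteins were SDS-eluted, gel-separated, digested and analyzed by nano-LC-MS/MS on a QTof. Identifications used significance p<0.05, 0.4 Da tolerances and one missed cleavage; unique peptide (spectral) counts and sequence coverage were reported.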
For B1, the “Number of Assigned Spectra, Mia-Paca 2” value stood at 1.
The same measure, in the same setting: the value for B2 was 2; that for B3 was 1.

The next test deals with Hsp90 complexes in K562 cell extract. The experiment in a line: Nano-LC-MS/MS of PU-beads pull-downs. The following applies: protein identified in PU-beads pull-down of K562 cell extract, Prep 1; QSTAR-Elite QTof MS. The test is classed as binding. The essentials:
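Lysates pre-cleared overnight at 4 °C with control beads, then pulled down with PU-beads or control beads; eluted proteins (2% SDS boil) gel-separated and analysed by nano LC-MS/MS on a QTof. Mascot identification (p<0.05), spectral counts and sequence coverage evaluated in Scaffold.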
In the case of B1, the “Number of Assigned Spectra, K562 Prep 1” value was determined as 2.
The same measure, in the same setting: with B2 the figure was 0; with B3, 0.

The test is the same for the next values; noted with them: protein identified in PU-beads pull-down of K562 cell extract, Prep 2; QSTAR-Elite QTof MS.
Turning to B1, the “Number of Assigned Spectra, K562 Prep 2” value stood at 0.
For B2, the “Number of Assigned Spectra, K562 Prep 2” value is given as 0.
On the same count and under the same terms, with B3 the figure was 0.

These data come from patent US20220074941A1, “HSP90 COMBINATION THERAPY” (Sloan-Kettering Institute for Cancer Research, priority 2011, published 2022).
